Measurements taken from paper PMC4881018, “Sec15 links bud site selection to polarised cell growth and exocytosis in Candida albicans” (Scientific Reports, 2016).

T1: His-Sec15^1–549 (C. albicans, UniProt A0A1D8PM29 1-549)
T1 construct: Sec15, exocyst component of Candida albicans, amino acids 1 to 549; Subcloned into pET21-a (Novagen); also called His6-Sec15^1–549; source: E. coli, purified
T1 sequence (looked up): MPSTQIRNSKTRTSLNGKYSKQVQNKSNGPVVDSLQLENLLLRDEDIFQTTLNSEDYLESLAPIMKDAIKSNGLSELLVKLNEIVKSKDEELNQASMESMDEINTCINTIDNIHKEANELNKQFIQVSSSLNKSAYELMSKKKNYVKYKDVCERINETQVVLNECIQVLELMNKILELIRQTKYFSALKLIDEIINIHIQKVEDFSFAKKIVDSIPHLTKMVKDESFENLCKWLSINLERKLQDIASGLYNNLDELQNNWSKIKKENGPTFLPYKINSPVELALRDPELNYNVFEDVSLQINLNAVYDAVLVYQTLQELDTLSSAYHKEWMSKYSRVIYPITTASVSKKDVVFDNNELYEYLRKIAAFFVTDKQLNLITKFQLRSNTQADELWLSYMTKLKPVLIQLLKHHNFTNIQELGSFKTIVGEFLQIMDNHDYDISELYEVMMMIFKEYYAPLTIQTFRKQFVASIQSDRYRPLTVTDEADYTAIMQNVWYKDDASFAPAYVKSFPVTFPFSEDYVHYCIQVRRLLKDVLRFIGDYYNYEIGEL

T2: His-Sec15^1–300 (C. albicans, UniProt A0A1D8PM29 1-300)
T2 construct: Sec15, exocyst component of Candida albicans, amino acids 1 to 300; Subcloned into pET21-a (Novagen); also called His6-Sec15^1–300; source: E. coli, purified
T2 sequence (looked up): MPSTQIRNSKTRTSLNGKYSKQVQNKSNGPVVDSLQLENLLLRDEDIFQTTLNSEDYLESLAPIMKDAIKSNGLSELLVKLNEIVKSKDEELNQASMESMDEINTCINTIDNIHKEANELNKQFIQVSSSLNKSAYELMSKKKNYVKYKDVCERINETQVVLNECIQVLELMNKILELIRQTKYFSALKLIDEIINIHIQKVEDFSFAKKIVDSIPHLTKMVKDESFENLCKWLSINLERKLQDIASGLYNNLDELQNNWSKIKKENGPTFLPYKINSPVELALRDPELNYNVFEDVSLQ

T3: GST-Sec15^550–892 (C. albicans, UniProt A0A1D8PM29 550-892)
T3 construct: The methods say only that similar strategies as for Sec15 and Rsr1 were used; source: E. coli, purified
T3 sequence (looked up): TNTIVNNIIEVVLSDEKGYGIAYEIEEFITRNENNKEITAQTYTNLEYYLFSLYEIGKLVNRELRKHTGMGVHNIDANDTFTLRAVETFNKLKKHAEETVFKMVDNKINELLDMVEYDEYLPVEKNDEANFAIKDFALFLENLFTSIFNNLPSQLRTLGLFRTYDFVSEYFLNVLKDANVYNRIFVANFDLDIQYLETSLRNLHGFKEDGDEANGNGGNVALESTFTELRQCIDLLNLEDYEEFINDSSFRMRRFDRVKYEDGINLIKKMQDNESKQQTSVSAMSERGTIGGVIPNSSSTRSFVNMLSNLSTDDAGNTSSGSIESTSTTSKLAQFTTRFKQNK

B1: GST-Rsr1^K16N (GDP-locked form of Rsr1) (natural protein)
chain: MRDYKVVVLGAGGVGNSSITVQFVQGVYVESYDPTIEDSYRKQIEVDGRACDLEILDTAGVAQFTAMRELYIKSGKGFLLVYSVTDENSLKELLALREQVLRIKDSDNVPMVLVGNKCDLEDDRVLSIEDGVKVSQDWGLVPFYETSAMYKTNVDEAFIDVVRQIMRKEAAISAEKKQQKELQKQQQQQQQEQDAEGQQQQQKSGKSKSSATQKDATADGQTDVNARLKQSINDHPKSSSGSKFCTII
notes: Rsr1, Ras-family GTPase of Candida albicans; GDP-locked mutant K16N; Made with the pGEX vector system (Amersham Biosciences), which normally places GST at the N-terminus; also called Rsr1-GDP; recombinant Rsr1^K16N
B2: His-Bem1^1–300 (domain or fragment, C. albicans, UniProt A0A1D8PLB6 1-300, looked up)
chain: MIKTFRKSKRSSSNSSSPKKTISRVSSTSSNQTSHDGILQSPKKVIRALYDYEPQGPGELKFFKGDFFHVLDDVDDELHKEAEANGWIEATNPMTQLKGMVPISYFEIFDRSRPTVTASSNSFTNSIDIQHQHQHQQGIHNGTGNRNLNQTLYAVTLYEFKAERDDELDIMPNENLIICAHHDYEWFIAKPINRLGGPGLVPVSYVKIIDLLNPNSHYTSIDTSRRSQVIQVINGFNIPTVEQWKNQTAKYQASTIPLGSISGSGTPPTSANSQYFDNHTMTSNRSSSGSSISIVEASVD
notes: Bem1, polarity determinant of Candida albicans, N-terminal 300 amino acids; also called His6-Bem1^1–300; N-terminal 300 amino acids of Bem1; source: similar strategies as for the E. coli proteins

Experiments:
Assay in all cases: pull-down; GST fusion protein immobilised on glutathione-Sepharose beads (20 μl), incubated with 20 μg of purified His-tagged protein in 200 μl binding buffer (1× PBS, 1 mg/ml ovalbumin, 10 mM β-mercaptoethanol, 0.1% IGPAL-30), 1 hour at room temperature; four washes; anti-His blot
Conditions in all cases: both partners purified
[1] = target: T1, His-Sec15^1–549
[2] = target: T2, His-Sec15^1–300
[3] = target: T3, GST-Sec15^550–892

Binder	binding result [1]	binding result [2]	binding result [3]
B1	binds	binds	
B2			binds
